Assay results reported in US12590147 (OBLIQUE THERAPEUTICS, dated 2026).
Substitutions are numbered along the chain they refer to.

B1: OT-Ab2 (antibody, IgG1, V domains shown)
VH: EVKLLESGGGLVQPGGSLKLSCAASGFDFRRYWMSWVRQAPGKGLEWIGEINPDSSTINYTPSLKDEFIISRDNAKNTLYLQMSKVRSEDTVLYYCSRGGDYWGQGTSVTVSS
VL: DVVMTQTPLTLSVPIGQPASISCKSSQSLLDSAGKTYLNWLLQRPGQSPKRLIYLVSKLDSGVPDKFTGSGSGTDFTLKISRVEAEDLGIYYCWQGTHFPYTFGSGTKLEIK
notes: mouse monoclonal, IgG1/kappa
B2: OT-Ab3 (antibody, IgG1, V domains shown)
VH: B1 VH with K3N
VL: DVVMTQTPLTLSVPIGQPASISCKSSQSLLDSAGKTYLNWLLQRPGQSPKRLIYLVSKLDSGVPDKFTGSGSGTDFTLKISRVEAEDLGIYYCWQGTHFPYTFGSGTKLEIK
notes: mouse monoclonal, IgG1/kappa
B3: OT-Ab1 (antibody, IgG2b, V domains shown)
VH: EVQLQQSGAELVKPGASVKLSCTASGFNIKDTYIHWVKQRPEQGLEWIGRIDPANGNTRYDPKFQGKATITADTSSNTAYLQLSSLTSEDTAVYYCAKVSGDRRFYWYFDVWGAGTTVTVSS
VL: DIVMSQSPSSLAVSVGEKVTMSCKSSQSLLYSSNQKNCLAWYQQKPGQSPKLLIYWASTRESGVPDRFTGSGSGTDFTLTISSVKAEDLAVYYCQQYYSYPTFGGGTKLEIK
notes: mouse monoclonal, IgG2b/kappa
B4: 17E11-1 (antibody, IgG1, V domains shown)
VH: EVQLLQSVAELVRPGASVKLSCTASGFNIKNTFIHWLKQRPEQGLEWIGKIDPANGNIRCAPKFQGKATITADTSSNTAYLQLSSLTSGDTAIYYCGRGTMLVGHFYWYFDVWGTGTTVTVSS
VL: DIVMSQSPSSLAVSVGEKITMSCKSSQSLLYSSNQKNYLAWYQQKPGQSPKLLIYWASTRESGVPDRFSGSGSGTDFTLTISSVKTEDLAIFYCQQYYYYPPTFGAGTKLELR
B5: 17E9-1 (antibody, IgG2b, V domains shown)
VH: B4 VH
VL: B4 VL
B6: 16F1-1 (antibody, IgG2a, V domains shown)
VH: EVQLVESGGGLVQPKGSLKLSCAASGFTFNTYAMHWVRQAPGKGLEWVARIRSKSSNYATYYADSVKDRFTISRDDSQSMVYLQMNNLKTEDTAMYYCVRKGDGYDGWFAYWGQGTLVTVSA
VL: DIQMTQSPASLSASVGETVTITCRPSGNIHNYLVWYQQKQGKSPQVLVYNSKTLADGVPSRFSGSGSGTQYSLKINSLQPEDFGTYYCQHFWSTPLTFGAGTKLELK
B7: 41B5-1 (antibody, V domains shown)
VH: DVQLQESGPGLVKPSQSLSLTCTVTDYSLTSDYAWNWIRQFPGNKLEWMGYITYSGYTNFNPSLRSRISITRDTSKTQFFLQLNSVTAEDTATYYCVRSTTYFDYWGQGTTLTVSS
VL: DVLMTQTPLSLPVSLGDQASISCRSSQSIVHSDGNTYLEWYLQKPGQSPKLLIYKVSNRFSGVPDRFSGSGSGTDFTLKINRVEAEDLGIYYCFQGSHVPPTFGGGTKLEIK
B8: 46B7-1 (antibody, V domains shown)
VH: B7 VH with F60Y, R65K, I68V, A88T, V97A, T101A
VL: B7 VL with I29V, V30I, N81S, I90V
B9: 15D8-1 (antibody, V domains shown)
VH: DVQLVESGGGLVQPGGSRKLSCAASGFTFSSFGMHWVRQAPEKGLEWVAYISSGSSTIYYADTVKGRFTISRDNPKNTLFLQMTSLRSEDTAMYYCARRGNAMDYWGQGTSVTVSS
VL: NIMMTQSPSSLAVSAGEKVTMSCKSSQSVLYSSNQKNYLAWYQQKPGQSPKLLIYWASTRESGVPDRFTGSGSGTDFTLTISSVQAEDLAVYYCHQYFSSWTFGGGTKLEIK
B10: 12C9-1 (antibody, IgG2b, V domains shown)
VH: EVQLQQSGPELVKPGTSVKISCKASGYTFTGYYMNWVKQSHGKSLEWIGDINPNNGGTDYNRKFKGKATLTVDKSSSTAYMEVRSLTSEDSAVYYCAKDFAVWGTGTTVTVSS
VL: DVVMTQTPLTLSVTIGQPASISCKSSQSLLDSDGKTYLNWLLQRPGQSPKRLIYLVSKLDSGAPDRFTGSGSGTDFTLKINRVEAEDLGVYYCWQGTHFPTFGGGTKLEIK
notes: mouse monoclonal, IgG2b/kappa
B11: 12G6-1 (antibody, IgG1, V domains shown)
VH: EVQLVESGGDLVNPGGSLKLSCAASGFTISNYGMSWVRQTPDKRLEWVAIIIRDGGYTYYPDSVKGRFTISRDSAKNTLYLQMSSLKSEDTAMYYCARHEYYFDFWGQGTTLTVSS
VL: B7 VL with S28T, V30L, N81S, I90V, F94S, V99F, L109V
notes: mouse monoclonal, IgG1/kappa

Biological target: T1, human TRPV1 (transient receptor potential vanilloid type 1) (human, UniProt Q8NER1 1-839)
T1 construct: ion channel expressed from a tetracycline regulated system (T-REx) in adherent CHO cells, induced with doxycycline; also called hTRPV1
Experiment: FACS on CHO cells with induced hTRPV1 expression
Description: For monoclonal antibody preparations, CHO-TRPV1 cells were incubated with 50 μl antibody preparation (serum, hybridoma supernatant or purified monoclonal antibody) for 30 min at 4° C., followed by 30 min incubation at 4° C. with 50 µl secondary antibody (anti-mouse IgG, conjugated to fluorescent probe). The negative control was secondary antibody only (anti-mouse IgG at […] in the 50 µL sample). Binding was assessed by measurement of fluorescence signal from cells and reported as mean fluorescence intensity (MFI). CHO-TRPV1 cells are adherent Chinese hamster ovary (CHO) cells with a tetracycline regulated expression system (T-REx) of hTRPV1 (human TRPV1) as described elsewhere. Doxycycline was used to induce expression of TRPV1 (denoted +TRPV1). Non-induced cells are denoted –TRPV1.
Three examples of mouse monoclonal antibodies against human TRPV1, OT-Ab1, OT-Ab2 and OT-Ab3, were produced using the hybridoma technology. Specificity of binding to hTRPV1 was determined using FACS, employing a CHO cell line with inducible hTRPV1 expression. OT-Ab1, OT-Ab2 and OT-Ab3 bound to hTRPV1-expressing cells but not to non-hTRPV1-expressing cells indicating strongly specific binding to hTRPV1 (FIG. 5).

T1 sequence (Q8NER1 whole entry): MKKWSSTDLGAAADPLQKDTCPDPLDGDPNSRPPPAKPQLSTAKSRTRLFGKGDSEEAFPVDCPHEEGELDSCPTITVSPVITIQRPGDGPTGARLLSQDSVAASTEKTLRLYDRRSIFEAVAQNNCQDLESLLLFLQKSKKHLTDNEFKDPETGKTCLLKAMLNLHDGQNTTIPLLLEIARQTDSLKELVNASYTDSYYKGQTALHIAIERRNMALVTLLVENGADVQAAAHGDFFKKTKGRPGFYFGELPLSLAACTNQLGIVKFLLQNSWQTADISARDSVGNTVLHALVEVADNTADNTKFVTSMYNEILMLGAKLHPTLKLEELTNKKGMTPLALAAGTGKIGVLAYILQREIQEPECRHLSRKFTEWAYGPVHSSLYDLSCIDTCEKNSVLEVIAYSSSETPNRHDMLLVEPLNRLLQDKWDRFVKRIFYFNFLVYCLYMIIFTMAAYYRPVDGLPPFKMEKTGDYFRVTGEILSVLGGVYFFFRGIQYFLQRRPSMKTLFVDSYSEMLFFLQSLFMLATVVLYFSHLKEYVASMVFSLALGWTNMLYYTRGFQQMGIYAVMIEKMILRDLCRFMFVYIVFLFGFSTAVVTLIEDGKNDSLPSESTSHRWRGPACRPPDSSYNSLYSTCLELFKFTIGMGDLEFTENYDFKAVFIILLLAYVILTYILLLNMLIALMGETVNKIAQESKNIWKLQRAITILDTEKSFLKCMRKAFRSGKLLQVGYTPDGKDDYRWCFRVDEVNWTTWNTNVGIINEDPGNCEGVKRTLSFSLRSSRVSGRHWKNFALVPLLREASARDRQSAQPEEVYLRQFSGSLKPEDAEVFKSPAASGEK

| binding result | Binder |
| --- | --- |
| binds | B1 |
| binds | B2 |
| binds | B3 |

Biological target: T1, human TRPV1 (transient receptor …)
Experiment: cell-based or functional assay

| IC50 of inhibition of TRPV1-mediated capsaicin-induced Ca2+ uptake (FLIPR) [nM] | Binder |
| --- | --- |
| ~230 | B4 |
| ~400 | B5 |
| ~215 | B6 |
| ~170 | B7 |
| ~200 | B8 |
| ~70 | B9 |

Biological target: T1, human TRPV1 (transient receptor …)
Experiment: FACS on CHO TRPV1 cells, purified antibody
Description: For monoclonal antibody preparations for FACS analysis, CHO TRPV1 cells, HEK 293 cells or CHO S cells were incubated with 50 μl antibody preparation (serum, hybridoma supernatant or purified monoclonal antibody or control) for 40 min at room temperature, followed by 30 min incubation at room temperature with 100 μl secondary antibody (anti-mouse IgG, conjugated to fluorescent probe). Binding was assessed by measurement of fluorescence signal from cells and reported as mean fluorescence intensity (MFI). CHO TRPV1 cells are adherent Chinese hamster ovary (CHO) cells with a tetracycline regulated expression system (T-REx) of hTRPV1 (human TRPV1) as described elsewhere. Doxycycline was used to induce expression of TRPV1. CHO S cells and HEK 293 cells were used as negative control cells. CHO S cells are a high-density suspension-adapted cell type used as a tool for high level expression of recombinant protein, with little or no basal expression of TRPV1. […]
In the study described in the present example, 16 mouse monoclonal antibodies against human TRPV1, 32C8-1, 33C9-1, 34C11-1, 40B10-1, 41B5-1, 43D6-1, 44E8-1, 46B7-1, 46D9-1, 12C9-1, 12G6-1, 15D8-1, 16F1-1, 17E11-1, 17E9-1, 18E10-1, were produced using the hybridoma technology. Specificity of binding to hTRPV1 was determined using FACS, employing a CHO cell line with inducible hTRPV1 expression. […]

| binding result | Binder |
| --- | --- |
| binds | B10 |
| binds | B11 |
